{"source": "paper PMC9091222", "about": "“Profiling of hMPV F-specific antibodies isolated from human memory B cells” (Nature Communications, 2022)", "binders": {"B1": {"name": "M4B06 IgG (antibody, V domains shown)", "VH": "EVQLLESGGGFVQPGGSLRLSCVVTGFTFSNYAMCWVRQAPGKGPEWVSGIGGSVGTTYYADSVKGRFTISRDNSKNTLYLQMSGLRAEDTARYYCAKVPSFFVFEDGFDMWGQGTVVTVSS", "VL": "QSVLTQPPSASGNPGQRVTISCYGSGSNIGNNYVHWFRQLPGTAPRLLIYNTDILVPGVPDRFSGSESGTSASLAISGLQSGDEADYFCAAWDDTLNGYVFGPGTTVTVL"}, "B2": {"name": "M4B06 Fab (Fab, V domains shown)", "VH": "B1 VH", "VL": "B1 VL", "notes": "as the heavy chain of m4 before CDR3 (germline IGHV3-23*01); heavy chain CDR3; rest of VH after CDR3 and CH1 of the Fab; as the light chain of m4 before CDR3 (germline IGLV1-44*01); light chain CDR3; as the light chain of m4 after CDR3; The Fab was not built in the cryo-EM density map; also called M4B06 monovalent Fab; source: recombinantly purified"}}, "key": {"[1]": {"target": "unprocessed hMPV PreF trimer (wild-type hMPV F ectodomain trimer, strain B2, C-terminal GCN4 trimerization … (Human metapneumovirus, subgroup B2 …, UniProt Q6W8S4, strain))", "experiment": "cell-based or functional assay"}, "[2]": {"target": "T1, processed stabilized hMPV PreF trimer (115BV), co-expressed with furin (Human metapneumovirus, subgroup B2 …, UniProt Q6W8S4, stabilised)", "T1 construct": "F2 chain of the fusion (F) glycoprotein of human metapneumovirus, strain B2, after cleavage by co-expressed furin; disulfide-linked to F1; F1 chain (ectodomain part) of the fusion (F) glycoprotein of human metapneumovirus, strain B2, after cleavage by co-expressed furin; also called processed PreF; prefusion-stabilized hMPV F trimer 115BV; source: Expi293, co-transfected with furin at 1:1, …", "experiment": "cryo-EM structure; M4B06 Fab incubated with processed PreF (115BV) trimer (trimer:Fab = 1:3) for 1 h at 4 °C, purified on Superdex 200 Increase in 25 mM HEPES pH 7.5, 150 mM NaCl; map at 3.75 Å, no symmetry imposed; Fab not built", "settings": "both partners purified"}}, "data": [{"binder": "B1", "values": [{"measurement": "neutralization IC50, hMPV A virus (plaque reduction neutralization assay)", "setting": "[1]", "value": 3.5, "unit": "ng/mL"}, {"measurement": "neutralization IC50, hMPV B virus (plaque reduction neutralization assay)", "setting": "[1]", "value": 2.2, "unit": "ng/mL"}]}, {"binder": "B2", "values": [{"measurement": "stoichiometry N", "setting": "[2]", "value": 3, "unit": "Fabs per PreF trimer"}]}]}
